In PMC10618305, “An intramolecular disulphide bond in human 4E-T affects its binding to eIF4E1a protein” (European Biophysics Journal, 2023):
Values belong to the molecule of their own block, whether it stands above or below them. Bridge positions count the residues as written; N and C are the ends.

Assays:
[1] = target: human eIF4E1a protein (human) (UniProt P06730); experiment: differential scanning fluorimetry (thermal shift); non-reducing: 50 mM HEPES-KOH pH 7.2, 100 mM KCl, no TCEP; 5 µM eIF4E1a with 0-50 µM h4E-T(1-68) variant incubated without TCEP (up to 48 h, 4 or 20 °C), or SEC-purified dimers at 1:1; SYPRO Orange; shift of the Tm of eIF4E1a
[2] = target: human 4E-T(1-68) wild type, monomer SH (both cysteines reduced) (human) (UniProt Q9NRA8); experiment: SEC; non-reducing: monomer fractions incubated 24 h at 20 °C in TCEP-free 50 mM HEPES-KOH pH 7.2 with KCl, Enrich SEC70 column, 20 °C; dimers are held by intermolecular disulphide bonds
human eIF4E1a protein [3] = target: T1, human eIF4E1a protein (human, UniProt P06730 1-217); experiment: differential scanning fluorimetry (thermal shift); non-reducing: 50 mM HEPES-KOH pH 7.2, 100 mM KCl, no TCEP; 5 µM eIF4E1a with 0-50 µM h4E-T(1-68) variant incubated without TCEP (up to 48 h, 4 or 20 °C), or SEC-purified dimers at 1:1; SYPRO Orange; shift of the Tm of eIF4E1a; conditions: both partners purified
T1 construct: human eukaryotic translation initiation factor 4E, isoform called eIF4E1a; Extinction coefficient used: 52,940 M^-1 cm^-1; also called heIF4E1a; eukaryotic initiation factor 4E
T1 sequence (P06730 whole entry, canonical isoform): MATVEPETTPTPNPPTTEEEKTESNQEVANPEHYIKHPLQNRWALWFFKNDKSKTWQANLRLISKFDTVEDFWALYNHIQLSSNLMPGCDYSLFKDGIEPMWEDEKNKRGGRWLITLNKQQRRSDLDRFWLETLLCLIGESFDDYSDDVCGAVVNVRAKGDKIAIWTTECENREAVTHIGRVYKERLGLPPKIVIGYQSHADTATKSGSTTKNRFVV

human eIF4E1a protein [4] = target: T1, human eIF4E1a protein; experiment: ITC; non-reducing: 50 mM HEPES-KOH pH 7.2, 100 mM KCl, no TCEP, 20 °C; 20 µM eIF4E1a in the cell titrated with 200 µM h4E-T(1-68) WT; one-site model; conditions: both partners purified
human eIF4E1a protein [5] = target: T1, human eIF4E1a protein; experiment: differential scanning fluorimetry (thermal shift); non-reducing: 50 mM HEPES-KOH pH 7.2, 100 mM KCl, no TCEP; 5 µM eIF4E1a with 0-50 µM h4E-T(1-68) variant incubated without TCEP (up to 48 h, 4 or 20 °C), or SEC-purified dimers at 1:1; SYPRO Orange; shift of the Tm of eIF4E1a; conditions: both partners purified; remark: listed apart in the source
human eIF4E1a protein [6] = target: T2, human eIF4E1a protein (human, UniProt P06730 1-217); experiment: ITC; eIF4E1a in the cell, titrated with a ten-fold concentrated h4E-T(1-68) variant (for WT: 20 uM eIF4E1a, 200 uM h4E-T); 20 °C; 50 mM HEPES-KOH pH 7.2, 100 mM KCl, without TCEP (non-reducing); one-site model; conditions: both partners purified
T2 construct: eukaryotic translation initiation factor 4E, isoform 1a (eIF4E1a), human; Extinction coefficient used: 52,940 M^-1 cm^-1; also called heIF4E1a; eukaryotic initiation factor 4E
T2 sequence (P06730 whole entry, canonical isoform): as above

human eIF4E1a protein [7] = target: T2, human eIF4E1a protein; experiment: ITC; eIF4E1a (5 or 10 uM) in the cell, titrated with a ten-fold concentrated h4E-T(1-68) variant; 20 °C; 50 mM HEPES-KOH pH 7.2, 100 mM KCl, with 1 mM TCEP (reducing); one-site model; conditions: both partners purified
human eIF4E1a protein [8] = target: T1, human eIF4E1a protein; experiment: differential scanning fluorimetry (thermal shift); reducing: 50 mM HEPES-KOH pH 7.2, 100 mM KCl, 1 mM TCEP; 5 µM eIF4E1a with 0-50 µM h4E-T(1-68) variant; SYPRO Orange; shift of the Tm of eIF4E1a; conditions: both partners purified
human eIF4E1a protein [9] = target: T1, human eIF4E1a protein; experiment: as above; conditions: both partners purified; remark: listed apart in the source
human eIF4E1a protein [10] = target: T1, human eIF4E1a protein; experiment: ITC; reducing: 50 mM HEPES-KOH pH 7.2, 100 mM KCl, 1 mM TCEP, 20 °C; 5 or 10 µM eIF4E1a in the cell titrated with ten-fold concentrated h4E-T(1-68) variant; one-site model; conditions: both partners purified
[11] = target: the molecule itself; experiment: SEC; non-reducing: monomer fractions incubated 24 h at 20 °C in TCEP-free 50 mM HEPES-KOH pH 7.2 with KCl, Enrich SEC70 column, 20 °C; dimers are held by intermolecular disulphide bonds

human eIF4E1a protein (human), sequence (P06730 whole entry): as the sequence (P06730 whole entry, canonical isoform) above

fold lower ΔTm than the corresponding monomer [1]: 2 fold
ΔTm lower than that of the monomer-dimer mixture [1]: 2.5 °C
ΔΔTm against the monomer SS of WT h4E-T(1-68), 1:1 mixture [1]: 5.5 °C
Molecule: dimeric form of human 4E-T(1-68) C26A (intermolecular disulphide bond) (from UniProt Q9NRA8 1-68) (complex)

percent in the dimeric form [2]: 10%
stoichiometry N [2]: 2
Molecule: human 4E-T(1-68) wild type, monomer SH (both cysteines reduced) (from UniProt Q9NRA8 1-68) (domain or fragment)

fold lower ΔTm than the corresponding monomer [1]: 2 fold
ΔTm lower than that of the monomer-dimer mixture [1]: 2.5 °C
ΔΔTm against the monomer SS of WT h4E-T(1-68), 1:1 mixture [1]: 7 °C
Molecule: dimeric form of human 4E-T(1-68) C50A (intermolecular disulphide bond) (from UniProt Q9NRA8 1-68) (complex)

Kd (human eIF4E1a protein [4]): 800 ± 96 nM
B1: human 4E-T(1-68) wild type with the intramolecular disulphide bond Cys26-Cys50 (monomer SS) (domain or fragment, UniProt Q9NRA8 1-68, looked up)
chain: MDRRSMGETESGDAFLDLKKPPASKCPHRYTKEELLDIKELPHSKQRPSCLSEKYDSDGVWDPEKWHA
modifications: disulfide 26-50
notes: human 4E-Transporter (4E-T), N-terminal fragment, residues 1-68; Same construct as m2, oxidised; The samples without TCEP may still hold some monomer SH and a small fraction of dimer; also called h4E-T(1-68) WT under non-reducing conditions; disulphide loop form
Tm of eIF4E in the 1:1 mixture (melting peak after 3 h at 20 °C without TCEP) (human eIF4E1a protein [3]): 41.5 ± 0.5 °C
ΔTm of eIF4E at eIF4E:h4E-T(1-68) 1:1 (human eIF4E1a protein [5]): 1 ± 0.5 °C
ΔTm of eIF4E at eIF4E:h4E-T(1-68) 1:10 (human eIF4E1a protein [5]): 9.5 ± 0.5 °C

Ka (human eIF4E1a protein [6]): 1.25e+06 ± 150000 M⁻¹
B2: human 4E-T(1-68) wild type under non-reducing conditions (monomer SS, intramolecular disulphide bond) (domain or fragment, UniProt Q9NRA8 1-68, looked up)
chain: MDRRSMGETESGDAFLDLKKPPASKCPHRYTKEELLDIKELPHSKQRPSCLSEKYDSDGVWDPEKWHA
modifications: disulfide 26-50
notes: 4E-Transporter (4E-T), human, residues 1-68; Same construct as Wm2, in TCEP-free buffer; also called h4E-T(1-68) WT without TCEP; disulphide loop form

Ka (human eIF4E1a protein [7]): 3.73e+08 ± 6.8e+07 M⁻¹
B3: human 4E-T(1-68) wild type, reduced (monomer SH) (domain or fragment, UniProt Q9NRA8 1-68, looked up)
chain: MDRRSMGETESGDAFLDLKKPPASKCPHRYTKEELLDIKELPHSKQRPSCLSEKYDSDGVWDPEKWHA
notes: 4E-Transporter (4E-T), human, residues 1-68; The His6-tag is cleavable by thrombin, but no cleavage is described; Kept in 1 mM TCEP, with both cysteines reduced; also called h4E-T(1-68) WT; h4ET(1-68)

Kd (human eIF4E1a protein [10]): 2.7 ± 0.5 nM
B4: human 4E-T(1-68) wild type, monomer SH (both cysteines reduced) (domain or fragment, UniProt Q9NRA8 1-68, looked up)
chain: MDRRSMGETESGDAFLDLKKPPASKCPHRYTKEELLDIKELPHSKQRPSCLSEKYDSDGVWDPEKWHA
notes: pET28a construct, His6-tag cleavable by thrombin; also called h4E-T(1-68) WT; h4ET(1-68)
Tm of eIF4E in the 1:1 mixture (melting peak after 3 h at 20 °C without TCEP) (human eIF4E1a protein [3]): 51.5 ± 0.5 °C
ΔTm of eIF4E at eIF4E:h4E-T(1-68) 1:1 (human eIF4E1a protein [8]): 12 ± 0.5 °C
ΔTm of eIF4E at eIF4E:h4E-T(1-68) 1:10 (human eIF4E1a protein [8]): 15.5 ± 0.5 °C
Tm of eIF4E in the 1:1 mixture (zero time) (human eIF4E1a protein [9]): 52.5 ± 0.5 °C

Kd (human eIF4E1a protein [10]): 3.1 ± 0.2 nM
B5: human 4E-T(1-68) C26AC50A (domain or fragment, UniProt Q9NRA8 1-68, looked up)
chain: MDRRSMGETESGDAFLDLKKPPASKAPHRYTKEELLDIKELPHSKQRPSALSEKYDSDGVWDPEKWHA
notes: human 4E-Transporter (4E-T), N-terminal fragment, residues 1-68; also called double cysteine mutant
ΔTm of eIF4E at eIF4E:h4E-T(1-68) 1:1 (human eIF4E1a protein [5]): 10.5 ± 0.5 °C
ΔTm of eIF4E at eIF4E:h4E-T(1-68) 1:10 (human eIF4E1a protein [5]): 14.5 ± 0.5 °C

Ka (human eIF4E1a protein [7]): 6.64e+08 ± 8.4e+07 M⁻¹
Ka (human eIF4E1a protein [6]): ~1e+08 M⁻¹
B6: human 4E-T(1-68) C26A (domain or fragment, UniProt Q9NRA8 1-68, looked up)
chain: MDRRSMGETESGDAFLDLKKPPASKAPHRYTKEELLDIKELPHSKQRPSCLSEKYDSDGVWDPEKWHA
notes: 4E-Transporter (4E-T), human, residues 1-68, with C26A; also called h4E-T(1-68)C26A; C26A mutant

Ka (human eIF4E1a protein [6]): 3.27e+08 ± 2.2e+07 M⁻¹
B7: human 4E-T(1-68) C26AC50A (domain or fragment, UniProt Q9NRA8 1-68, looked up)
chain: MDRRSMGETESGDAFLDLKKPPASKAPHRYTKEELLDIKELPHSKQRPSALSEKYDSDGVWDPEKWHA
notes: 4E-Transporter (4E-T), human, residues 1-68, with C26A and C50A; This mutant cannot form any disulphide bond; also called h4E-T(1-68)C26AC50A; double cysteine mutant

B8: human 4E-T(1-68) C50A (domain or fragment, UniProt Q9NRA8 1-68, looked up)
chain: MDRRSMGETESGDAFLDLKKPPASKCPHRYTKEELLDIKELPHSKQRPSALSEKYDSDGVWDPEKWHA
notes: human 4E-Transporter (4E-T), N-terminal fragment, residues 1-68; Without TCEP the samples are a mixture of monomer and disulphide-linked dimer; also called C50A mutant
ΔTm of eIF4E at eIF4E:h4E-T(1-68) 1:1 (human eIF4E1a protein [8]): 11.5 ± 0.5 °C
ΔTm of eIF4E at eIF4E:h4E-T(1-68) 1:10 (human eIF4E1a protein [8]): 15.5 ± 0.5 °C
ΔTm of eIF4E at eIF4E:h4E-T(1-68) 1:1 (human eIF4E1a protein [5]): 10.5 ± 0.5 °C
ΔTm of eIF4E at eIF4E:h4E-T(1-68) 1:10 (human eIF4E1a protein [5]): 14.5 ± 0.5 °C
stoichiometry N [11]: 2
ΔTm of eIF4E at eIF4E:h4E-T(1-68) 1:1 (human eIF4E1a protein [9]): 12 ± 0.5 °C

Kd (human eIF4E1a protein [10]): 1.5 ± 0.5 nM
B9: human 4E-T(1-68) C26A (domain or fragment, UniProt Q9NRA8 1-68, looked up)
chain: MDRRSMGETESGDAFLDLKKPPASKAPHRYTKEELLDIKELPHSKQRPSCLSEKYDSDGVWDPEKWHA
notes: human 4E-Transporter (4E-T), N-terminal fragment, residues 1-68; Without TCEP the samples are a mixture of monomer and disulphide-linked dimer; also called C26A mutant; C26 mutant
ΔTm of eIF4E at eIF4E:h4E-T(1-68) 1:1 (human eIF4E1a protein [8]): 12 ± 0.5 °C
ΔTm of eIF4E at eIF4E:h4E-T(1-68) 1:10 (human eIF4E1a protein [8]): 15.5 ± 0.5 °C
ΔTm of eIF4E at eIF4E:h4E-T(1-68) 1:1 (human eIF4E1a protein [5]): 9 ± 0.5 °C
ΔTm of eIF4E at eIF4E:h4E-T(1-68) 1:10 (human eIF4E1a protein [5]): 12.5 ± 0.5 °C
stoichiometry N [11]: 2
